Results on four molecules are retold here after patent publication US8796209B2, “Compositions and methods related to anti-FGF agents” (The Regents of the University of California, priority 2005, dated 2014).

Changes are numbered by the printed parent chain. Entries after “also recorded” stand apart in the source; their conditions may differ.

The target of one experiment is T1, integrin αvβ3 (Homo sapiens, UniProt P05106+P06756).
T1 construct: using the soluble αv and β3 expression constructs provided by Tim Springer; made in house; host or cells: CHO K1
As to the kind of experiment: Soluble integrin binding assay (ELISA-type), soluble αvβ3 on immobilized FGF. The note with it: for effect of the mutation on binding of soluble αvβ3 to FGF-1: mutant coated to plate; for αvβ3 binding: phenotype of FGF-1 mutants, Table 2. How it is done: Wells of 96-well microtiter plates were coated with 10 μg/ml FGF-1 or FGF-2 and remaining protein binding sites were blocked with 1 mg/ml BSA. Recombinant soluble αvβ3 (50 μl/well at 5 μg/ml in Hepes-Tyrode buffer supplemented with 1 mM MnCl2) was added to wells and incubated for 1 h at room temperature. Soluble αvβ3 was incubated with 10 μg/ml 7E3 (white bar) or mouse IgG (black bar) for 10 min on ice prior to adding to the wells. BSA (circle) was used as a negative control. Data is shown as means+/−SD of triplicate experiments.
FGF-1 (10 μg/m) was heat-treated at indicated temperature for 10 min prior to immobilization. Binding of soluble αvβ3 was determined as described in FIG. 1. Data is shown as percent binding+/−SD of triplicate experiments.
Amino acid residues in the integrin-binding site or in the FGFR-binding site were mutated individually or in groups. Wild-type (diamond), R50E (open square), N33A (closed square), 4xE (circle), 3xA (triangle) were coated to a plastic plate various concentration as indicated and the binding of soluble αvβ3 was determined as described in FIG. 2. BSA (cross) was used as a negative control. […] “4xE” represents the K127E/K128E/K133E/R134E mutant. “3xA” represents the E102A/Y109A/Q110A mutant.
Binding assays were performed as previously described (Takagi et al., 2001). Native or heat-denatured FGF-1 in 0.1 M carbonate buffer, pH 9.4, were incubated in a polystyrene 96-well non-tissue culture plates surface overnight at 4° C. Unbound FGF-1 was removed, and 200 μl of 0.1% bovine serum albumin in PBS was added and incubated for 60 min at room temperature. The wells were washed with PBS and soluble integrin αvβ3 in 50 μl in Hepes-Tyrode buffer supplemented with 1 mM Mn^2+ were added to the wells and incubated at room temperature for 60 min. After non-bound soluble integrin were removed by rinsing the wells with the same buffer. Horseradish peroxidase (HRP) conjugated anti His-tag mouse IgG was added to well and incubated 60 min. Non-bound antibodies were removed by rinsing the wells with the same buffer, bound integrins were quantified by measuring the absorbance of 450 nm developed from adding the substrate (3,3′,5,5′-tetramethylbenzidine) of HRP unbound protein was aspirated, and the wells were washed with PBS three times.
A general note: An ELISA detects its analyte on a solid surface through an enzyme-linked reagent.

Another experiment deals with T2, FGFR1 D2D3 fragment (Homo sapiens, UniProt P11362).
T2 construct: A DNA fragment encoding amino acid residues 140 to 365 of the immunoglobulin-like domains D2 and D3 of FGFR; made in house
T2 sequence (P11362 140-365): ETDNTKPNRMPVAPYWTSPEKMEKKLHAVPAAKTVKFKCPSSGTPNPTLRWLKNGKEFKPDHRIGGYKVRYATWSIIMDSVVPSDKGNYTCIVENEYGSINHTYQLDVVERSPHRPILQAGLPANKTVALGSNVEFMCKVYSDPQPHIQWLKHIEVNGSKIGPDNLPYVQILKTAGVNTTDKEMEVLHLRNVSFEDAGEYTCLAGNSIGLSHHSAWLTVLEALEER
Kind of experiment: Competition with biotinylated FGF-1 for immobilized FGF receptor D2D3 fragments. Type of experiment: binding. Particulars: for effect of the mutation on binding of the FGFR1 D2D3 fragment: competition with 1 μg/ml biotinylated FGF-1; for FGFR binding: phenotype of FGF-1 mutants, Table 2. How it is done: One μg/mi biotinylated FGF-1 and increasing concentrations of unlabelled FGF-1 or FGF-1 mutants were incubated for 1 h at RT with immobilized FGF receptor D2D3 fragments. Then the plate was washed and the bound biotinylated FGF were measured using an avidin conjugated HRP. Unlabeled wild-type (diamond) FGF-1, the R50E (square), 4xE (circle), and 3xA (triangle) FGF-1 mutants were used.
A DNA fragment encoding amino acid residues 140 to 365 of the immunoglobulin-like domains D2 and D3 of FGFR was amplified by PCR with the full length human FGFR1 cDNA in the pcDNA3 (gift from Ann Hanneken, the Scripps Research Institute, La Jolla, Calif.) as a template. A Bam HI restriction site was introduced at the 5′ end, Xho I site at the 3′ end of the cDNA fragment with the following primers: 5′-[…]-3′ (SEQ ID NO:5), 5′-[…]-3′ (SEQ ID NO:6). The resulting cDNA fragment was subcloned into the Bam HI/Xho I sites of the vector pET21a, and transformed into BL21 (DE3).
The protein was expressed as an insoluble protein, refolded as described (Plotnikov et al., 2000). The refolded protein was purified by affinity chromatography using the FGF-1 coupled to CNBr-activated Sepharose (Amersham Pharmacia Biotech) as an affinity matrix. FGF-1-Sepharose was incubated with crude refolded proteins 16 h at 4° C. After binding, the affinity matrix was washed with buffer containing 100 mM NaCl and 50 mM Tris (pH 7.4); and eluted with 1.2M NaCl, and 50 mM Tris (pH 7.4).

Another experiment relates to ERK1/2. As to the kind of experiment: MAP kinase (ERK1/2) activation, western blot. Type of experiment: cell-based, mouse. The note with it: for ability to induce ERK1/2 activation: 5 ng/ml, 10 min, with or without 5 μg/ml heparin; for ERK1/2 activation: phenotype of FGF-1 mutants, Table 2. How it is done:
Serum starved Balb3T3 cells were stimulated with wild-type and mutant FGF-1s (5 ng/ml) in the presence or absence of 5 μg/ml heparin for 10 min at 37° C. Cell lysates were analyzed by western blotting with anti-phospho ERK1/2 (anti phospho-ERK). Total amount of ERK1/2 in each lane was determined by blotting with anti-ERK1/2. Controls contain medium alone (none) or medium containing 10% fetal calf serum (FCS).
Balb3T3 cells were grown to confluence and serum starved in DMEM supplemented with 0.4% fetal calf serum for 24 h, and stimulated with wild type and mutant FGF-1 (5 ng/ml) in the presence or absence of 5 μg/ml heparin for 10 min at 37° C. Cells were washed twice with ice-cold PBS and lysed with the lysis buffer (20 mM Tris-HCI pH 8.0, 120 mM NaCl, 5 mM EDTA, 0.5% Triton-X100, 1 mM PMSF, 1 mM DTT, 10 mM NaF, 1 mM Na3VO4, 10 μg/ml aprotinin). Cell lysates were separated on 4-12% NuPAGE Bis-Tris Gel (invitrogen). Proteins were then transferred to PVDF membranes (Milli-pore), probed with antibodies, and bound antibodies were detected by HRP-conjugated anti-mouse IgG and chemiluminescence HRP substrate (Pierce). The antibodies used were anti-phospho-ERK1/2, anti-ERK1/2 (Cell Signaling Technology).

T1 sequence (P06756 31-992 limits assumed): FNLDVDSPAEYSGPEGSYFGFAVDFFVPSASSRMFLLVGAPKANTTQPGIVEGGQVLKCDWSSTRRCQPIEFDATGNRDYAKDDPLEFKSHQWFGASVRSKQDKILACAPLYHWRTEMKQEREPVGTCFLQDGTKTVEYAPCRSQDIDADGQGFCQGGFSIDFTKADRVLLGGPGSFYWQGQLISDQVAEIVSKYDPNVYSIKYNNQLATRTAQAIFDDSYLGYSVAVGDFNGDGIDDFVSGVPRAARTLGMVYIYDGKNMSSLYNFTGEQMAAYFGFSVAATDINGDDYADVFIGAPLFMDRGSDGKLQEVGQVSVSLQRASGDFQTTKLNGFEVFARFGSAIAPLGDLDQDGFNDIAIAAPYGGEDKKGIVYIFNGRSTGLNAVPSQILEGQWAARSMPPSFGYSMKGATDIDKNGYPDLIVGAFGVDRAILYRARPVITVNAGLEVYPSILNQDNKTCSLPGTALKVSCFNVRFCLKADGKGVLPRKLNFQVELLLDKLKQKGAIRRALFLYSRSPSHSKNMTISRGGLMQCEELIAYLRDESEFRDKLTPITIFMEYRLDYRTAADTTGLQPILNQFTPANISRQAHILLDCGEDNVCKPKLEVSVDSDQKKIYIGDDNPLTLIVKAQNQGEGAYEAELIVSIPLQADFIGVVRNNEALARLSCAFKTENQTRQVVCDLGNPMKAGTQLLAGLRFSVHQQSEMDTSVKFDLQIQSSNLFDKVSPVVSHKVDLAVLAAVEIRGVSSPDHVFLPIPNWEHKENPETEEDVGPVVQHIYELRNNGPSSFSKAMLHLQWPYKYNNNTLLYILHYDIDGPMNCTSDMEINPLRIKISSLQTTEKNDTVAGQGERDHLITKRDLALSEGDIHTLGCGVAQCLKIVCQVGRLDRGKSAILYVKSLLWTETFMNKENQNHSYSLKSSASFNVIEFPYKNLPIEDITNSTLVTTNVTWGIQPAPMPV
T1 sequence (P05106 27-718 limits assumed): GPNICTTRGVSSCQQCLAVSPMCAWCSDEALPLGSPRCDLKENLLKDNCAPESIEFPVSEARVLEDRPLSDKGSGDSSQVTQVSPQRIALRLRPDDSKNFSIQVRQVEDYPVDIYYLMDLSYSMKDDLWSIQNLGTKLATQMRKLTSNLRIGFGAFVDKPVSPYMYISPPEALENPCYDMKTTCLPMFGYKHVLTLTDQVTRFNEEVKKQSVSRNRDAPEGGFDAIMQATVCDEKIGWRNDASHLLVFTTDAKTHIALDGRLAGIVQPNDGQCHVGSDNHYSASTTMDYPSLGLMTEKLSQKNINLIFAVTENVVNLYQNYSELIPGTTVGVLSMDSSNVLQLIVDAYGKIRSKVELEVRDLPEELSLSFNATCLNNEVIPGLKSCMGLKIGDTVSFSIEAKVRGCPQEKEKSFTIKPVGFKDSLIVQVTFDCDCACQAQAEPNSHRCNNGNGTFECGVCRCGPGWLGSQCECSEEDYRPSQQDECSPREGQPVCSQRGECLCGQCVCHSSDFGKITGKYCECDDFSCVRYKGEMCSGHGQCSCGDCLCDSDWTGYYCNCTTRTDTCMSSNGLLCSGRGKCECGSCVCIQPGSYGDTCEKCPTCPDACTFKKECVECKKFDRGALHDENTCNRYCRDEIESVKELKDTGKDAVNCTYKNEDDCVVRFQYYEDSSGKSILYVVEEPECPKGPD

As to “R50E: FGF-1 mutant with the Arg-50 to Glu (R50E) mutation”, in the experiment with integrin αvβ3, the “effect of the mutation on binding of soluble αvβ3 to FGF-1” value (“effect of the mutation … to FGF-1” for short) is “blocked the binding; also recorded: effectively blocked” and the αvβ3 binding entry is “Low”. Moreover, in the experiment with FGFR1 D2D3 fragment, the “effect of the mutation on binding of the FGFR1 D2D3 fragment” value (“effect … of the FGFR1 D2D3 fragment” below) is on record as “did not block” and the FGFR binding entry is on record as “Normal”. Further, in the experiment on ERK1/2, the “ability to induce ERK1/2 activation” value is “much less ability” and the ERK1/2 activation result was “Low”.
For the molecule “Wild type: human FGF-1 (acidic FGF), wild type, expressed in E. coli”, the “binding of soluble αvβ3 to the immobilized protein” value with integrin αvβ3 (coated at 10 μg/ml, soluble αvβ3 5 μg/ml, 1 mM MnCl2) is “bound”. Besides, in the experiment with integrin αvβ3 (heat-denatured, heat-treated 10 min before immobilization), the “binding of soluble αvβ3 to heat-denatured protein” value is “did not bind”. In addition, in the experiment with integrin αvβ3, the αvβ3 binding result is on record as “Normal”. Besides, the FGFR binding entry in the experiment with FGFR1 D2D3 fragment is listed as “Normal”. Further, the ERK1/2 activation entry in the experiment with ERK1/2 is listed as “Normal”.

B1: 4xE: FGF-1 mutant, Lys127/Lys128/Lys133/Arg134 simultaneously to Glu (protein)
chain: FNLPPGNYKKPKLLYCSNGGHFLRILPDGTVDGTRDRSDQHIQLQLSAESVGEVYIKSTETGQYLAMDTDGLLYGSQTPNEECLFLERLEENHYNTYISKKHAEKNWFVGLEENGSCEEGPRTHYGQKAILFLPLPVSSD
In the case of B1, in the experiment with integrin αvβ3, the “effect of the mutation … to FGF-1” value is recorded as “effectively blocked” and the αvβ3 binding result was “Low”. Moreover, in the experiment with FGFR1 D2D3 fragment, the “effect … of the FGFR1 D2D3 fragment” value is given as “did not block” and the FGFR binding entry was “Normal”. In the experiment with ERK1/2, the “ability to induce ERK1/2 activation” value was “did not induce ERK1/2 activation at all” and the ERK1/2 activation entry is “Low”.

B2: 3xA: FGF-1 mutant, three residues in the FGFR binding site (Glu102/Tyr109/Asn110) to Ala (protein)
chain: B1 chain with E87A, Y94A, N95A, E112K, E113K, E118K, E119R
As for B2, in the experiment with integrin αvβ3, the “effect of the mutation … to FGF-1” value is reported as “did not affect” and the αvβ3 binding result is listed as “Normal”. In addition, in the experiment with FGFR1 D2D3 fragment, the “effect … of the FGFR1 D2D3 fragment” value is given as “effectively blocked” and the FGFR binding result is “Low”. For the same molecule, in the experiment on ERK1/2, the “ability to induce ERK1/2 activation” value was “did not show ERK1/2 activation” and the ERK1/2 activation result is given as “Low”.
